Laboratory results reported in IntAct's records for PubMed 25588830.

B1: Septin-12 (Homo sapiens), Q8IYM1 (parent)
chain: MDPLRRSPSPCLSSQPSSPSTPPCEMLGPVGIEAVLDQLKIKAMKMGFEFNIMVVGQSGLGKSTMVNTLFKSKVWKSNPPGLGVPTPQTLQLHSLTHVIEEKGVKLKLTVTDTPGFGDQINNDNCWDPILGYINEQYEQYLQEEILITRQRHIPDTRVHCCVYFVPPTGHCLRPLDIEFLQRLCRTVNVVPVIARADSLTMEEREAFRRRIQQNLRTHCIDVYPQMCFDEDINDKILNSKLRDRIPFAVVGADQEHLVNGRCVLGRKTKWGIIEVENMAHCEFPLLRDLLIRSHLQDLKDITHNIHYENYRVIRLNESHLLPRGPGWVNLAPASPGQLTTPRTFKVCRGAHDDSDDEF
partner: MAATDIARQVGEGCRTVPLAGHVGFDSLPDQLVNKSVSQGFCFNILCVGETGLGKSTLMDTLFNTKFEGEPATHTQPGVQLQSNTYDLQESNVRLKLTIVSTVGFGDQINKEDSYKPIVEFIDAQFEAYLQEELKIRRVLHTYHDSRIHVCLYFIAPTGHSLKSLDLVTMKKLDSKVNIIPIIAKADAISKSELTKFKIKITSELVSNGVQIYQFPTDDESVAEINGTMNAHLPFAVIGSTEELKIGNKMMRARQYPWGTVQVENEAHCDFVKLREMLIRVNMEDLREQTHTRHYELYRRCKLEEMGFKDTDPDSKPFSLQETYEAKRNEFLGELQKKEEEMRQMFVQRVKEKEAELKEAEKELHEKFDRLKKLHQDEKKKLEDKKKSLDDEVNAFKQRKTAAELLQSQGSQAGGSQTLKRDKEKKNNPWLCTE
B2: Septin-12 (Homo sapiens), Q8IYM1 (parent)
chain: B1 chain
partner: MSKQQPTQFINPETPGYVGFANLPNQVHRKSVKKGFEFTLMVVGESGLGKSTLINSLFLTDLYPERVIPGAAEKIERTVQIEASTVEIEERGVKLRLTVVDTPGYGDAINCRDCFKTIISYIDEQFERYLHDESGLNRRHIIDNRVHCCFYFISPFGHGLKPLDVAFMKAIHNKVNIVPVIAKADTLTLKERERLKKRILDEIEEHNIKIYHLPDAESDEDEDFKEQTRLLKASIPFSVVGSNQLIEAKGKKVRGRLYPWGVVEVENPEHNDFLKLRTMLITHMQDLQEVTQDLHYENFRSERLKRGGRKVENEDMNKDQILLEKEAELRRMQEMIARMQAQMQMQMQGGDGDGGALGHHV
B3: Septin-12 (Homo sapiens), Q8IYM1 (parent)
chain: B1 chain
partner: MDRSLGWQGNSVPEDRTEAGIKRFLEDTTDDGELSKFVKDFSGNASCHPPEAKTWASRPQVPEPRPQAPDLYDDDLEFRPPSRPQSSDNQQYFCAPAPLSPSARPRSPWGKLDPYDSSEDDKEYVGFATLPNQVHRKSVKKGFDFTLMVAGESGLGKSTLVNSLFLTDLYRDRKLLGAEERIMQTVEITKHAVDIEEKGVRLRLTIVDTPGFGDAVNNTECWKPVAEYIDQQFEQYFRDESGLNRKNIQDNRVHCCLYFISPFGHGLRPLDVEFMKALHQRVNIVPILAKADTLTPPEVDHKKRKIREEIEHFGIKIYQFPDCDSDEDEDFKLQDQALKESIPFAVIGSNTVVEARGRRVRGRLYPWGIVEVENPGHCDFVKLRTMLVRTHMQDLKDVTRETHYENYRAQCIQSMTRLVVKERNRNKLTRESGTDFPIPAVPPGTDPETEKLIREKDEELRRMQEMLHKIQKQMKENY
B4: Septin-12 (Homo sapiens), Q8IYM1 (parent)
chain: B1 chain
partner: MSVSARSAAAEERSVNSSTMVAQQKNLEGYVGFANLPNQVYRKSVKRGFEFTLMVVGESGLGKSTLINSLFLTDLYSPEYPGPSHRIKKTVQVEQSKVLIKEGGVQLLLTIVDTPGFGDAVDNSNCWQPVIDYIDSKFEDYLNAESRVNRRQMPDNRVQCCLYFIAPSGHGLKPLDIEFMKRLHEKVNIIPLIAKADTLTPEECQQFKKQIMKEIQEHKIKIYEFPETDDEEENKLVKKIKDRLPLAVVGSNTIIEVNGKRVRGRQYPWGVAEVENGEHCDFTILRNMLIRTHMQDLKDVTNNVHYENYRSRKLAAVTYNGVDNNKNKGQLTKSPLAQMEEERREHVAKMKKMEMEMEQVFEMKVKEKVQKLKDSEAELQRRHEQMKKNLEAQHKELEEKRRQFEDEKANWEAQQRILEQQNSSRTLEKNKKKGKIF

Variants of: B1
Conditions: with sept6_human SEPTIN6, Q14141

Q: Which “effect of a mutation on the interaction” value does the source give for MDPLRRSPSPCLSSQPSSPSTPPCEMLGPVGIEAVLDQLKIKAMKMGFEFNIMVVGQSGLGKSTMVNTLFKSKVWKSNPPGLGVPTPQTLQLHSLTHVIEEKGVKLKLTVTDTPGFGDQINNDNCWDPILGYINEQYEQYLQEEILITRQRHIPDTRVHCCVYFVPPTGHCLRPLDIEFLQRLCRTVNVVPVIARANSLTMEEREAFRRRIQQNLRTHCIDVYPQMCFDEDINDKILNSKLRDRIPFAVVGADQEHLVNGRCVLGRKTKWGIIEVENMAHCEFPLLRDLLIRSHLQDLKDITHNIHYENYRVIRLNESHLLPRGPGWVNLAPASPGQLTTPRTFKVCRGAHDDSDDEF [D197N] here?
A: disrupting interaction

Variants of: B2
Conditions: with sept2_human SEPTIN2, Q15019

Q: How did the “effect of a mutation on the interaction” value turn out when MDPLRRSPSPCLSSQPSSPSTPPCEMLGPVGIEAVLDQLKIKAMKMGFEFNIMVVGQSGLGKSTMVNTLFKSKVWKSNPPGLGVPTPQTLQLHSLTHVIEEKGVKLKLTVTDTPGFGDQINNDNCWDPILGYINEQYEQYLQEEILITRQRHIPDTRVHCCVYFVPPTGHCLRPLDIEFLQRLCRTVNVVPVIARANSLTMEEREAFRRRIQQNLRTHCIDVYPQMCFDEDINDKILNSKLRDRIPFAVVGADQEHLVNGRCVLGRKTKWGIIEVENMAHCEFPLLRDLLIRSHLQDLKDITHNIHYENYRVIRLNESHLLPRGPGWVNLAPASPGQLTTPRTFKVCRGAHDDSDDEF [D197N] was run?
A: disrupting interaction

Variants of: B3
Conditions: with sept4_human SEPTIN4, O43236

Q: With MDPLRRSPSPCLSSQPSSPSTPPCEMLGPVGIEAVLDQLKIKAMKMGFEFNIMVVGQSGLGKSTMVNTLFKSKVWKSNPPGLGVPTPQTLQLHSLTHVIEEKGVKLKLTVTDTPGFGDQINNDNCWDPILGYINEQYEQYLQEEILITRQRHIPDTRVHCCVYFVPPTGHCLRPLDIEFLQRLCRTVNVVPVIARANSLTMEEREAFRRRIQQNLRTHCIDVYPQMCFDEDINDKILNSKLRDRIPFAVVGADQEHLVNGRCVLGRKTKWGIIEVENMAHCEFPLLRDLLIRSHLQDLKDITHNIHYENYRVIRLNESHLLPRGPGWVNLAPASPGQLTTPRTFKVCRGAHDDSDDEF [D197N] as the variant, how does the “effect of a mutation on the interaction” value read?
A: disrupting interaction

Variants of: B4
Conditions: with sept7_human SEPTIN7, Q16181

Q: How did the “effect of a mutation on the interaction” value turn out when MDPLRRSPSPCLSSQPSSPSTPPCEMLGPVGIEAVLDQLKIKAMKMGFEFNIMVVGQSGLGKSTMVNTLFKSKVWKSNPPGLGVPTPQMLQLHSLTHVIEEKGVKLKLTVTDTPGFGDQINNDNCWDPILGYINEQYEQYLQEEILITRQRHIPDTRVHCCVYFVPPTGHCLRPLDIEFLQRLCRTVNVVPVIARADSLTMEEREAFRRRIQQNLRTHCIDVYPQMCFDEDINDKILNSKLRDRIPFAVVGADQEHLVNGRCVLGRKTKWGIIEVENMAHCEFPLLRDLLIRSHLQDLKDITHNIHYENYRVIRLNESHLLPRGPGWVNLAPASPGQLTTPRTFKVCRGAHDDSDDEF [T89M] was run?
A: disrupting interaction strength

Q: With MDPLRRSPSPCLSSQPSSPSTPPCEMLGPVGIEAVLDQLKIKAMKMGFEFNIMVVGQSGLGKSTMVNTLFKSKVWKSNPPGLGVPTPQTLQLHSLTHVIEEKGVKLKLTVTDTPGFGDQINNDNCWDPILGYINEQYEQYLQEEILITRQRHIPDTRVHCCVYFVPPTGHCLRPLDIEFLQRLCRTVNVVPVIARANSLTMEEREAFRRRIQQNLRTHCIDVYPQMCFDEDINDKILNSKLRDRIPFAVVGADQEHLVNGRCVLGRKTKWGIIEVENMAHCEFPLLRDLLIRSHLQDLKDITHNIHYENYRVIRLNESHLLPRGPGWVNLAPASPGQLTTPRTFKVCRGAHDDSDDEF [D197N] as the variant, how does the “effect of a mutation on the interaction” value read?
A: disrupting interaction strength

Variants of: B4
Conditions: with sept7_human SEPTIN7, Q16181
Remark: another data set of the same source

Q: For MDPLRRSPSPCLSSQPSSPSTPPCEMLGPVGIEAVLDQLKIKAMKMGFEFNIMVVGQSGLGKSTMVNTLFKSKVWKSNPPGLGVPTPQMLQLHSLTHVIEEKGVKLKLTVTDTPGFGDQINNDNCWDPILGYINEQYEQYLQEEILITRQRHIPDTRVHCCVYFVPPTGHCLRPLDIEFLQRLCRTVNVVPVIARADSLTMEEREAFRRRIQQNLRTHCIDVYPQMCFDEDINDKILNSKLRDRIPFAVVGADQEHLVNGRCVLGRKTKWGIIEVENMAHCEFPLLRDLLIRSHLQDLKDITHNIHYENYRVIRLNESHLLPRGPGWVNLAPASPGQLTTPRTFKVCRGAHDDSDDEF [T89M], which “effect of a mutation on the interaction” value is on record?
A: decreasing interaction

Q: MDPLRRSPSPCLSSQPSSPSTPPCEMLGPVGIEAVLDQLKIKAMKMGFEFNIMVVGQSGLGKSTMVNTLFKSKVWKSNPPGLGVPTPQTLQLHSLTHVIEEKGVKLKLTVTDTPGFGDQINNDNCWDPILGYINEQYEQYLQEEILITRQRHIPDTRVHCCVYFVPPTGHCLRPLDIEFLQRLCRTVNVVPVIARANSLTMEEREAFRRRIQQNLRTHCIDVYPQMCFDEDINDKILNSKLRDRIPFAVVGADQEHLVNGRCVLGRKTKWGIIEVENMAHCEFPLLRDLLIRSHLQDLKDITHNIHYENYRVIRLNESHLLPRGPGWVNLAPASPGQLTTPRTFKVCRGAHDDSDDEF [D197N] was tested. Which “effect of a mutation on the interaction” value did it give?
A: disrupting interaction
